Data published in patent US20200283521A1 (GRANULAR THERAPEUTICS, published 2020).

Columns and labels:
Test in all cases: direct ELISA on coated protein, IgG1
hVCAM-1 = biological target: T1, hVCAM-1 (human, UniProt P19320)
T1 construct: purified recombinant protein; member of the panel m9
T1 sequence (looked up): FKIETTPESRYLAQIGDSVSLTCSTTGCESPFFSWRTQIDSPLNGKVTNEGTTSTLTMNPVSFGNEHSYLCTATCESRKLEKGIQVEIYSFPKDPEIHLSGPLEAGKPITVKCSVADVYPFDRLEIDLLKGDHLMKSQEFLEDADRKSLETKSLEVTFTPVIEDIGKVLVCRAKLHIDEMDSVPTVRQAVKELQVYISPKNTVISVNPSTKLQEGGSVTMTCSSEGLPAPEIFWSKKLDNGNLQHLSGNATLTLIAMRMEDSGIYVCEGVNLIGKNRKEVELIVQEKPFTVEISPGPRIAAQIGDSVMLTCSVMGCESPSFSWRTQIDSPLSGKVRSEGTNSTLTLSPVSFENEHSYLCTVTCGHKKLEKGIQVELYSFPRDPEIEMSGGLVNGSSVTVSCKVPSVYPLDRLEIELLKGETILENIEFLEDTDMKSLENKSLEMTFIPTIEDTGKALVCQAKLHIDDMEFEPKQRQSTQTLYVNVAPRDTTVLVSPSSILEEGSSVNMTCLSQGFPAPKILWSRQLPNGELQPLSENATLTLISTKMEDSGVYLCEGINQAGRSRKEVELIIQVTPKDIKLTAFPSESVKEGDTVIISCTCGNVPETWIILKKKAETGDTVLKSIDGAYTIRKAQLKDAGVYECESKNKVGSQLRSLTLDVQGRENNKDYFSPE

hOX40-Fc = biological target: T2, hOX40-Fc
T2 construct: member of the panel m9
T2 chain: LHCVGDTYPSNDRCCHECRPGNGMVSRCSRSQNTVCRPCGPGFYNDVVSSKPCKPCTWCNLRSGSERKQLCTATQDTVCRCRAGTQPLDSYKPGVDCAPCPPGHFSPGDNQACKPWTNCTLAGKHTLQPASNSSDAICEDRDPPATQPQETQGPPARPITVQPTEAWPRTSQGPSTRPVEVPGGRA

hCD4 = biological target: T3, hCD4 (human, UniProt P01730)
T3 construct: purified recombinant protein; member of the panel m9

hCMET-Fc = biological target: T4, hCMET-Fc (The natural ectodomain is cleaved by furin after residue 307 into disulfide-linked alpha and beta chains. It is given here as one continuous stretch.)
T4 construct: member of the panel m9
T4 chain: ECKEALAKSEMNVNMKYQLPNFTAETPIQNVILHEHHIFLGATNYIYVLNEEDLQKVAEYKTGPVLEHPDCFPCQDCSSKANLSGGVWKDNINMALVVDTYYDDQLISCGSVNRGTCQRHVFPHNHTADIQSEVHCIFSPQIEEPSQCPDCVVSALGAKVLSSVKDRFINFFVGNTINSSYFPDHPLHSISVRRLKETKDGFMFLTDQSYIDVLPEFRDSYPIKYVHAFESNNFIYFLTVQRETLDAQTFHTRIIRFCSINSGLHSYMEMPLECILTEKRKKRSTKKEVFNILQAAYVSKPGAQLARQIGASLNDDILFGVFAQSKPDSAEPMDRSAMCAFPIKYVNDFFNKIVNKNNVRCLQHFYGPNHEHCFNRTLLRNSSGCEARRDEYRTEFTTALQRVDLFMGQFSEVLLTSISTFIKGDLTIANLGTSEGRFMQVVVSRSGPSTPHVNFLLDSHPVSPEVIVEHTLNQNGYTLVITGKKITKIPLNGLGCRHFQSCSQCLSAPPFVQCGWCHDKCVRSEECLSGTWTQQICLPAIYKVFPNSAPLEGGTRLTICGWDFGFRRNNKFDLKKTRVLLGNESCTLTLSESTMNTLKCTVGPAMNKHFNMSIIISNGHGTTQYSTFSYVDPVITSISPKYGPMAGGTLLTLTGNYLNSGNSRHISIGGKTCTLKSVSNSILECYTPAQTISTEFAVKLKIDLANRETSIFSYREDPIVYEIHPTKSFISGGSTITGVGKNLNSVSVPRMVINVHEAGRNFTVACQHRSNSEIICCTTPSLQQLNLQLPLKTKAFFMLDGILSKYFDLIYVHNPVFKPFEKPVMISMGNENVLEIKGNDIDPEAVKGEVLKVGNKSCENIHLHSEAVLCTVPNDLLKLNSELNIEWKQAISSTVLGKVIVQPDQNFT

hICAM-1-Fc = biological target: T5, hICAM-1-Fc (human, UniProt P05362)
T5 construct: Fc fusion; member of the panel m9

hDR3-Fc = biological target: T6, hDR3-Fc (human, UniProt Q93038)
T6 construct: Fc fusion; member of the panel m9
T6 sequence (looked up): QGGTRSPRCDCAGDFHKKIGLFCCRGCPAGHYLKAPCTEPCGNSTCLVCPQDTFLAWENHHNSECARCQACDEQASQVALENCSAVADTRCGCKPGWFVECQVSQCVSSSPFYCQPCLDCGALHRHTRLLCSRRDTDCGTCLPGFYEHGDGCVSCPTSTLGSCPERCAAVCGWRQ

hEpCAM-Fc = biological target: T7, hEpCAM-Fc (human, UniProt P16422)
T7 construct: Fc fusion; member of the panel m9
T7 sequence (looked up): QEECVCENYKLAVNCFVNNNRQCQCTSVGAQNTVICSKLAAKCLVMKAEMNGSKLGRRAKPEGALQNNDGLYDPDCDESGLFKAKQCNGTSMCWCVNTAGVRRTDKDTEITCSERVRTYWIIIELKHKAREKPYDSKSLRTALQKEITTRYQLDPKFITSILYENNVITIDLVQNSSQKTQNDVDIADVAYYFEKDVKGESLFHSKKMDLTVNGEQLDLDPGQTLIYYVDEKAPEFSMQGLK

h4-1BB-Fc = biological target: T8, h4-1BB-Fc
T8 construct: member of the panel m9

hVCAM-Fc = biological target: T9, hVCAM-Fc
T9 construct: member of the panel m9
T9 chain: T1 sequence (looked up)

Measured: binding result

T5 sequence (P05362 28-480 limits assumed): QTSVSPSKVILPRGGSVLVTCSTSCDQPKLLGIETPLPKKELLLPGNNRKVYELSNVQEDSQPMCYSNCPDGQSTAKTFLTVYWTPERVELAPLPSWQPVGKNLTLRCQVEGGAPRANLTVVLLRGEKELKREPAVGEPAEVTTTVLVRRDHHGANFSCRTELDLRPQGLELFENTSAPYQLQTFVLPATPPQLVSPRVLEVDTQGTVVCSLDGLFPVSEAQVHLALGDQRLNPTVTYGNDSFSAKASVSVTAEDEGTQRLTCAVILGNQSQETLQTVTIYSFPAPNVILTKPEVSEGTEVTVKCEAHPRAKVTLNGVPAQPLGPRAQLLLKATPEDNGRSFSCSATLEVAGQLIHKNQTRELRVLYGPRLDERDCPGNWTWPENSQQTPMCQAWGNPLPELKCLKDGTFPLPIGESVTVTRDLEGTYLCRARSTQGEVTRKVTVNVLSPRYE
T8 sequence (chain, as listed by the source limits assumed): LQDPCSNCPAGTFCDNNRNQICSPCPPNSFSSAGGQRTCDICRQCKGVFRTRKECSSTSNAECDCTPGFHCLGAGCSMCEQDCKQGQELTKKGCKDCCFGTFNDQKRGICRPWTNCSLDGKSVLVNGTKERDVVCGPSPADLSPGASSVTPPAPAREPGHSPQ

B1: MH5.22 (antibody, IgG1, V domains shown)
VH: QVQLVQSGAEVKKPGASVKVSCKASGYTFTDFYMNWVRQAPGQGLEWMGRIYPASGNTYYAQKFQGRVTMTRDTSTSTVYMELSSLRSEDTAVYYCARGVWYYDYWGQGTLVTVSS
VL: DIQMTQSPSSLSASVGDRVTITCRASQGIRTNLAWFQQKPGKAPKSLIYAASSLQSGVPSRFSGSGSGTDFTLTISSLQPEDFATYYCQQYANYPRTFGGGTKVEIK
notes: IgG1; also called C-KIT-MH5.22
no binding (tested: 1 µg/ml): all assays above
